As usually defined, the EC50 is the concentration that produces a half-maximal response. Low readings indicate higher potency in that assay, high ones lower potency in that assay.

The results in this text go back to patent publication US20160159906A1 (Genentech, published 2016).

First the molecules themselves.
T1: human CD79b (human, UniProt P40259 29-229)
T1 construct: Endogenous CD79b on BJAB / BJAB-luciferase cells (FACS) and on human B cells (killing assays); also called huCD79b; Igβ
T1 sequence: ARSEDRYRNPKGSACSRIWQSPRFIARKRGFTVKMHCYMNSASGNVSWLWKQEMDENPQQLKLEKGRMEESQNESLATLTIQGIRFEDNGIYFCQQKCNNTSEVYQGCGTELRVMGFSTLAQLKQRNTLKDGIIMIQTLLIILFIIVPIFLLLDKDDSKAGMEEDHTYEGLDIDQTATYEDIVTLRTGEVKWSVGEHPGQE

B1: CD79b.A7, dual arm, bivalent anti-CD79b antibody (antibody, V domains shown)
VH: QVQLQQPGVELVRPGASVKLSCKASGYTFTTYWMNWVRQRPGQGLDWIGMIDPSDSETHYNQMFKDKATLTVDKSSSTAYIQLNSLTSEDSAVYYCSRSLAFWGQGTLVTVSA
VL: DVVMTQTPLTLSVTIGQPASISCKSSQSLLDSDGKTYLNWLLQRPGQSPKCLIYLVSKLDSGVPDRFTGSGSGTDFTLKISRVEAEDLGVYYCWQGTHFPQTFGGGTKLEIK
notes: Mouse hybridoma clone; also called CD79.A7; muCD79b.A7
B2: Peptide 2, 21-amino acid peptide AKSEDLYPNPKGSACSRIWQS that correspond to the NH2 termini of cynoCD79b (peptide)
peptide: AKSEDLYPNPKGSACSRIWQS

In one experiment the target is T1, human CD79b. Description: FACS on BJAB cells (FIG. 3B); dual arm, bivalent antibody. The protocol:
BJAB cells were incubated with anti-CD79b antibody (bivalent, dual arm antibody) or anti-CD79b/CD3 TDB antibody as indicated for 30 minutes on ice. At the end of the incubation, cells were washed with ice cold FACS buffer (lx PBS, 2% BSA, 2mM EDTA), followed by incubation with PE-labeled mouse anti-human IgG antibody (BD bioscience #555787). Flow cytometry analysis was done on a BD LSR analyzer. Antibody binding was expressed as Mean Fluorescence Intensity (MFI) of PE fluorophore. A: The bivalent binding affinity of anti-CD79b clone 2F2 comparing to monovalent binding affinity of anti-CD79b clones 2F2, SN8v28, and SN8new (as K&H TDBs); B: bivalent binding affinity of anti-CD79b clones CD79b.F6 and CD79b.A7 comparing to monovalent binding of anti-CD79b clones CD79b.F6, CD79b.A7, and SN8v28 (as bisfab or K&H TDBs); C: bivalent binding affinity of anti-CD79b clone CD79b.A7.v14 comparing to monovalent binding of anti-CD79b clone CD79b.A7.v14 (as K&H TDBs).
The monovalent and bivalent anti-CD79b antibody binding affinity was also evaluated in order to better understand the contribution, if any, to B cell killing activity. Binding affinity of dual arm, bivalent anti-CD79b antibodies and bispecific anti-CD79b/ CD3 antibodies using BJAB cells were also analyzed. […]

Experiment [1] deals with B1. In words: FACS on BJAB cells, peptide competition of CD79b.A7 binding (data not shown).

Regarding B1, in the experiment with human CD79b, the EC50 was found to be 0.31 µg/mL.

As for B2, the binding result in experiment [1] is “no binding”.
